Where a chain is given by its changes, count along the chain named.
B1: HuMab 153 (antibody, V domains shown)
VH: QVQLVESGGGVVQPGRSLRLSCAASGFTFSDYVIHWVRQAPGKGLEWVTVISYDGSNKYYADSVKGRFTISRDNSKNTLYLQMNSLSAEDTAMYYCARGGITGTTGVFDYWGQGTLVTVSS
VL: DIQMTQSPSSLSASVGDRVTITCRASQGISSWLAWYQQKPEKAPKSLIYDASSLQSGVPSRFSGSGYGTDFSLTISSLQPEDFAIYYCQQYKSYPITFGQGTRLEIK
B2: HuMab 098 (antibody, V domains shown)
VH: EVQLLESGGGLVQPGGSLRLSCAASGFTFSNYGMSWVRQAPGKGLEWVSAISGSAYSTYYADSVKGRFTISRDNSKNTLWLQMNSLRAEDTAVYYCAKAHYHGSGSYYTLFDYWGQGTLVTVSS
VL: B1 VL with D50A, Y67S, S72T, I85T, K92N, I96Y, R103K
notes: also called TH1014-098; PC1014-098
B3: HuMab 132 (antibody, V domains shown)
VH: QVQLVQSGAEVKKPGASVKVSCKASGYTFTSYGISWVRQAPGQGLEWMGWISAYNGNSNYVQKFQGRVTMTTDTTTSTAYMELRSLTSDDTAVYYCAREYSYDSGTYFYYGMDVWGQGTTVTVSS
VL: EIVLTQSPATLSLSPGERATLSCRASQSVSSYLAWYQQKPGQAPRLLIYDASNRATGIPARFSGSGSGTDFTLTISSLEPEDFAVYYCQQRSNWPMYTFGQGTKLEIK

What was measured:
HER2ECDHis [1] = biological target: T1, HER2ECDHis (human, UniProt P04626 23-653, biotinylated in the cross-block ELISA (sites not given)); assay: ELISA; competitor tras
T1 construct: range 1-653; expressed in HEK-293F; also called soluble HER2; biotinylated HER2ECDHis

HER2ECDHis [2] = biological target: T1, HER2ECDHis; assay: ELISA; competitor 091
Procedure: (§1) Next, the ELISA wells were washed with PBST (PBS supplemented with 0.05% Tween-20 [Sigma-Aldrich, Zwijndrecht, The Netherlands]) and blocked for one hour at room temperature (RT) with PBSTC (PBST supplemented 2% [v/v] chicken serum [Gibco, Paisley, Scotland]). The ELISA wells were then washed with PBST and incubated for one hour at RT with HER2ECDHis serially diluted in PBSTC (0.25-2 μg/mL in 2-fold dilutions). […] The plate was thereafter washed with PBST and incubated for one hour with 0.1 μg/mL Streptavidin-poly-HRP (Sanquin, Amsterdam, The Netherlands) diluted in PBST. After washing, the reaction was visualized through a 15 minutes incubation with 2,2′-azino-bis (3-ethylbenzothiazoline-6-sulfonic acid) (ABTS: one ABTS tablet diluted in 50 mL ABTS buffer (Roche Diagnostics, Almere, The Netherlands)) at RT protected from light. The colorization was stopped by adding an equal volume of oxalic acid (Sigma-Aldrich, Zwijndrecht, The Netherlands). Fluorescence at 405 nm was measured on a microtiter plate reader (Biotek Instruments, Winooski, USA).
(§2) Each HER2 antibody was coated to the ELISA wells at the sub-optimal dose that was determined as described above. After blocking of the ELISA wells, the wells were incubated with the predetermined concentration of 1 μg/mL biotinylated HER2ECDHis in the presence or absence of an excess of a second (competitor) HER2 antibody. The ELISA was then performed as described above. […] Percentage competition was then determined as 100 minus the percentage of inhibition.

HER2ECDHis [3] = biological target: T1, HER2ECDHis; assay: ELISA; competitor 169
Procedure: as §1, §2

HER2ECDHis [4] = biological target: T1, HER2ECDHis; assay: ELISA; competitor 050
Procedure: as §1, §2

[5] = biological target: T2, human epidermal growth factor receptor 2 (HER2), membrane-bound on cells (human, UniProt P04626 23-1255); assay: cell-based or functional assay
[6] = biological target: T2, human epidermal growth factor receptor …; assay: cell-based or functional assay; remark: listed apart in the source
HER2ECDHis [7] = biological target: T1, HER2ECDHis; assay: ELISA; competitor 025
Procedure: as §1, §2

HER2ECDHis [8] = biological target: T1, HER2ECDHis; assay: ELISA; competitor 153
Procedure: as §1, §2

HER2ECDHis [9] = biological target: T1, HER2ECDHis; assay: ELISA; competitor 098
Procedure: as §1, §2

HER2ECDHis [10] = biological target: T1, HER2ECDHis; assay: ELISA; competitor 127
Procedure: as §1, §2

[11] = biological target: T2, human epidermal growth factor receptor …; assay: cell-based or functional assay; remark: listed apart in the source
HER2ECDHis [12] = biological target: T1, HER2ECDHis; assay: ELISA; competitor 159
Procedure: as §1, §2

HER2ECDHis [13] = biological target: T1, HER2ECDHis; assay: ELISA; competitor F5
Procedure: as §1, §2

HER2ECDHis [14] = biological target: T1, HER2ECDHis; assay: ELISA; competitor 129
Procedure: as §1, §2

HER2ECDHis [15] = biological target: T1, HER2ECDHis; assay: ELISA; competitor 084
Procedure: as §1, §2

HER2ECDHis [16] = biological target: T1, HER2ECDHis; assay: ELISA; competitor C1
Procedure: as §1, §2

HER2ECDHis [17] = biological target: T1, HER2ECDHis; assay: ELISA; competitor 132
Procedure: as §1, §2

HER2ECDHis [18] = biological target: T1, HER2ECDHis; assay: ELISA; competitor pert
Procedure: as §1, §2

| Binder | % binding vs no competitor (HER2ECDHis [1]) | % binding vs no competitor (HER2ECDHis [2]) | % binding vs no competitor (HER2ECDHis [3]) | % binding vs no competitor (HER2ECDHis [4]) | % cells killed, AU565, anti-kappa-ETA'-conjugated [5] | EC50 of cell kill, AU565, anti-kappa-ETA'-conjugated [5] | % cells killed, A431, anti-kappa-ETA'-conjugated [6] | EC50 of cell kill, A431, anti-kappa-ETA'-conjugated [6] | % binding vs no competitor (HER2ECDHis [7]) | % binding vs no competitor (HER2ECDHis [8]) | % binding vs no competitor (HER2ECDHis [9]) | % binding vs no competitor (HER2ECDHis [10]) | EC50, fab-CypHer5E internalization, AU565 [11] | Maximal MFI, fab-CypHer5E internalization, AU565 [11] | % binding vs no competitor (HER2ECDHis [12]) | % binding vs no competitor (HER2ECDHis [13]) | % binding vs no competitor (HER2ECDHis [14]) | % binding vs no competitor (HER2ECDHis [16]) | % binding vs no competitor (HER2ECDHis [17]) | % binding vs no competitor (HER2ECDHis [18]) | further results |
| --- | --- | --- | --- | --- | --- | --- | --- | --- | --- | --- | --- | --- | --- | --- | --- | --- | --- | --- | --- | --- | --- |
| B1 | 134% | 102% | 111% | 103% | 60.3% | 0.0323 µg/mL | 82.4% | ~0.0101 µg/mL | 97% | 28% | 115% | 27% | ~0.0149 µg/mL | 87500 MFI | 23% | 96% | 106% | 257% | 33% | 121% | % binding vs no competitor (HER2ECDHis [15]): 107% |
| B2 | 107% | 104% | 102% | 100% | 58.7% | 0.0121 µg/mL | 87.2% | 0.00165 µg/mL | 108% | 110% | 17% | 21% | 0.0138 µg/mL | 135000 MFI | 9% | 96% | 107% | 125% | 142% | 104% | % binding vs no competitor (HER2ECDHis [15]): 103% |
| B3 | 353% |  |  |  | 61.6% | 0.0394 µg/mL |  |  |  | 41% | 309% | 30% | 0.0114 µg/mL | 112000 MFI | 131% | 379% |  | 422% | 32% | 288% |  |
